Reference: PMC7487859
pKd: −log10 of the molar value.

What was measured:
[1] = tested on: PDGFRbeta (mouse, on 4T1 cells) (Mus musculus); assay: streptavidin-biotin cell binding assay; conditions: apparent Kd on intact 4T1 cells; Scr background subtracted; 2'-fluoro pyrimidines; 4T1 cells (2x10^4/well), 10-500 nM aptamer, 10 min, room temperature, BlockAid blocking solution with 1 mg/ml yeast tRNA and 1 mg/ml salmon sperm DNA; salt and …
[2] = tested on: PDGFRbeta (human, on MDA-MB-231 cells) (Homo sapiens); assay: cell binding assay; conditions: intact MDA-MB-231 cells; 2'-fluoro pyrimidines; 10-500 nM aptamer, 10 min, room temperature, BlockAid blocking solution with 1 mg/ml yeast tRNA and 1 mg/ml salmon sperm DNA; salt; cited from earlier work

Substance | pKd [1] | pKd [2]
Gint4.T | 7.11 | –
Gint4.T (as in cited ref 31) | – | 7.24
